For three substances, Kd, koff and kon results are on record in patent publication US20250263461A1.

Test [1] addresses pMHC1 complex: Biotin-HLA-A*02:01-… (SEQ ID NO: 1). Nature of the test: SPR, pMHC on streptavidin chip, soluble TCR as analyte, 1:1 binding model.
Test [2] deals with NY-ESO-1 and/or LAGE-1a peptide on HLA-A*02:01 (human). The experiment in a line: value quoted for comparison with 1G4LY; no measurement of 1G4 is described in this filing.
Test [3] has the same target. Nature of the test: surface plasmon resonance; biotinylated pMHC on streptavidin chip, soluble TCR 0 to 250 nM as analyte; 1:1 binding model; soluble, other. Background: In SPR one partner is held on a chip, and binding of the other changes the refractive index at the surface.
For test [4] the target is unchanged. Nature of the test: surface plasmon resonance; biotinylated pMHC on streptavidin chip, soluble TCR as analyte; 1:1 binding model; soluble, other.

As a reminder, the Kd is the constant that tells how readily two partners part at equilibrium. A higher Kd goes with lower affinity. The koff is the first-order rate constant of dissociation. In general, kon refers to a measure of how fast the partners come together. Read a high kon as fast association.

In test [1], soluble 1G4LY TCR yielded a Kd of 761 nM, a koff of 0.0303 s⁻¹ and an on-rate (kon) of 39800 M⁻¹ s⁻¹.
In test [2], 1G4 TCR gave a Kd of 32000 nM.
Regarding 1G4LY TCR, the Kd in test [3] was found to be 761 nM. In test [4], this substance gave a koff of 0.0303 s⁻¹ and a kon of 39800 M⁻¹ s⁻¹.
